Assay results as given in patent US12606817B2, “Methods of creating and screening DNA-encoded libraries” (X-Chem, Inc., priority 2009, dated 2026).

Assay: solubility of headpiece in organic solvent (DMF)
Assay type: physicochemical
Conditions: DMF/water reaction mixture
Method: In order to prepare a “library of 1,” a model compound, 5-(4,6-dichlorotriazinyl-aminofluorescein) (DTAF; Anaspec) (FIG. 12), was coupled to the amino group of HP-1. DTAF structurally represents a trichlorotriazine scaffold with one amino compound coupled. To form a library, trichlorotriazine scaffolds can be derivatized with a diversity of building blocks at each of the three chlorine positions. DTAF also provides a fluorescent label to the model library. The reaction (10 μl) was set up as follows. To 5 μl of 400 μM HP-1 dissolved in water, 2 μl of 750 mM borate buffer, pH 9.5, and 1 μl of DMF were added. DTAF was dissolved in DMF to 50 mM and 2 μl was added to the reaction. Final concentrations of the HP-1 and DTAF were 200 μM and 10 mM, respectively, thus generating a 50-fold excess of DTAF. The final DMF concentration was 30%. […] The reaction was allowed to proceed at 4° C. for 16-20 hours. The reaction mixture was then diluted with water to 30-50 μl and desalted on a Zeba spin column (Pierce). No further purification was completed at this point.

Substance: HP-1: hairpin oligonucleotide headpiece (SEQ ID NO: 51) with amino-PEG2000 linker on C5-amino-modified dT (DNA TCCTGGCTGAGGCGAGAGTTTTTCTCTCGCCTCAGCCAGGACC; amino-PEG2000 linker on C5-amino-modified dT; modified_base (21)..(21) dT-C6-NH)
- stayed soluble in up to % DMF: up to 90 % DMF
